Assay results reported in the supplement of paper PMC10724198.
± gives the standard deviation of the averaged measurements.
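Also: PSI is a weighted mean of sequencing reads over stability bins, variants kept only with over 10 reads, mCherry proximal and sfGFP distal, peptide attached via GGGS linker.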

Each sequence was assayed on Saccharomyces cerevisiae (assay: protein stability index of tFT-peptide fusion (C-terminal peptide) (PSI (0-1 scale)); higher = more stable (slower turnover)). Details: genetic background: wild type; temperature: 30 C.
GKGGITGWCCHH was tested, and the protein stability index was 0.648 ± 0.04.
NHQKFILAACGT showed a protein stability index of 0.68 ± 0.029.
In the case of PPPPPLSPPSLV, the protein stability index is reported as 0.725 ± 0.02.
Work on IGFHSGLFYYHC yielded a protein stability index of 0.594 ± 0.056.
DQMVILSHYSVR gave a protein stability index of 0.683 ± 0.038.
Work on IYGCISVYYSSG yielded a protein stability index of 0.562 ± 0.014.
For MPRSGRLSSRKE, the protein stability index was 0.718 ± 0.023.
With GGCDVCGVQWIG the protein stability index was 0.73 ± 0.054.
SRPRTTRKAASS showed a protein stability index of 0.674 ± 0.012.
LPNRRRLFLFPS showed a protein stability index of 0.735 ± 0.05.
PFPPTPVRRVPL showed a protein stability index of 0.715 ± 0.025.
For NGVLGYAVLEGE, the protein stability index was 0.705 ± 0.044.
For ARLHMSLFRPPA, the protein stability index was 0.646 ± 0.011.
WCLVTRGGDRDL gave a protein stability index of 0.6727 ± 0.0047.
Work on VYRMYTLKRVKR yielded a protein stability index of 0.686 ± 0.062.
Work on LPPPTSFPSFPP yielded a protein stability index of 0.724 ± 0.027.
With PLSPPLPLPLPL the protein stability index was 0.75 ± 0.037.
Work on VVVLCGGSGGVG yielded a protein stability index of 0.652 ± 0.059.
Sequence WTAITDRRSRPD has a protein stability index of 0.616 ± 0.063.
GAVGSPVEFGGR showed a protein stability index of 0.688 ± 0.063.
Sequence PPPPRPASPGSP has a protein stability index of 0.622 ± 0.065.
FAGNRDQEEERK was tested, and the protein stability index was 0.706 ± 0.022.
For HSLPPPCLHSTP, the protein stability index was 0.683 ± 0.021.
For IKKKTTKTKIKK, the protein stability index was 0.741 ± 0.031.
CVGTDVWQASSR was tested, and the protein stability index was 0.6 ± 0.057.
With CPPCPSAPPPLP the protein stability index was 0.752 ± 0.07.
FLFWFLFFCSSR was tested, and the protein stability index was 0.49 ± 0.022.
Sequence KSKKNKTEKTKE has a protein stability index of 0.665 ± 0.027.
For GSPSRKGQSRTG, the protein stability index was 0.698 ± 0.012.
For VELEPPVCVFLL, the protein stability index was 0.6391 ± 0.0017.
Sequence REGGDPPDGGTG has a protein stability index of 0.734 ± 0.039.
In the case of PHLPPSLFPSPP, the protein stability index is reported as 0.659 ± 0.073.
RLSGHLRLGRLG showed a protein stability index of 0.672 ± 0.086.
Sequence DFPIEEILGLVG has a protein stability index of 0.65 ± 0.05.
GRDSECCSGGGG was tested, and the protein stability index was 0.683 ± 0.018.
In the case of NQAQTQQMKTEW, the protein stability index is reported as 0.608 ± 0.05.
VRWCLPPLFTPL gave a protein stability index of 0.693 ± 0.059.
GCWAFGWLLQYS was tested, and the protein stability index was 0.574 ± 0.014.
For SGIRGWNLGEMW, the protein stability index was 0.7152 ± 0.0068.
FSEKLLRSSVYR showed a protein stability index of 0.639 ± 0.19.
In the case of PPRAHQSCPCRR, the protein stability index is reported as 0.719 ± 0.055.
VCSYISGRKSVL gave a protein stability index of 0.568 ± 0.0048.
With AKDSVDYKEGES the protein stability index was 0.6602 ± 0.0041.
In the case of PPTCRLQPYSRN, the protein stability index is reported as 0.759 ± 0.013.
IGWFGRCGCCCW was tested, and the protein stability index was 0.714 ± 0.2.
GLVAVRARGSRA gave a protein stability index of 0.663 ± 0.094.
For LLFISPPPRCLL, the protein stability index was 0.75 ± 0.036.
Work on GSRIGTVSIRRI yielded a protein stability index of 0.691 ± 0.072.
In the case of RCHAFGEWLRGW, the protein stability index is reported as 0.733 ± 0.003.
With LPSPHPPPPPAH the protein stability index was 0.727 ± 0.081.
Sequence WRCAGVGGVGGG has a protein stability index of 0.708 ± 0.012.
With PIMESARGFLCV the protein stability index was 0.658 ± 0.052.
Work on RSCPILLLSFPL yielded a protein stability index of 0.62297 ± 0.00052.
Sequence AGEERWGGCLTG has a protein stability index of 0.653 ± 0.021.
WALLAAGGGGRG gave a protein stability index of 0.651 ± 0.074.
LLPAPLPTALPL gave a protein stability index of 0.65 ± 0.07.
LHLPPPLPSTLP showed a protein stability index of 0.671 ± 0.012.
WTDHISEHLHTV gave a protein stability index of 0.742 ± 0.039.
Work on PLLRPRLRPFPR yielded a protein stability index of 0.704 ± 0.049.
In the case of CCGQRYACVFQT, the protein stability index is reported as 0.651 ± 0.029.
For NEGYLIQGVSMG, the protein stability index was 0.706 ± 0.0084.
With SVMMGVWWSGYR the protein stability index was 0.709 ± 0.13.
LLPAPPRLLPSS showed a protein stability index of 0.68 ± 0.024.
PPALLAPAAPLP was tested, and the protein stability index was 0.652 ± 0.07.
GGVVGWCAGKVV showed a protein stability index of 0.642 ± 0.071.
SSPCFGKLRHFL gave a protein stability index of 0.686 ± 0.035.
With DYPQWWEEQHVP the protein stability index was 0.797 ± 0.019.
For SWLGGIGGNEMV, the protein stability index was 0.726 ± 0.011.
Sequence QADHGSSPHSIG has a protein stability index of 0.717 ± 0.051.
With WSSSRPASGSSA the protein stability index was 0.708 ± 0.016.
In the case of PSPTRLPPPSPH, the protein stability index is reported as 0.757 ± 0.008.
With SPPPAPPRSGPL the protein stability index was 0.651 ± 0.051.
With AVCSLTLGFGWW the protein stability index was 0.755 ± 0.034.
WRLCWWVVESGG was tested, and the protein stability index was 0.639 ± 0.02.
AHVLQRVRLLSR gave a protein stability index of 0.618 ± 0.023.
Work on PPATPPRPPLPS yielded a protein stability index of 0.675 ± 0.057.
FVRWGWAVMLGG was tested, and the protein stability index was 0.571 ± 0.013.
In the case of SRFFFSPRLCVP, the protein stability index is reported as 0.604 ± 0.033.
Sequence AQAPSPGRAPSP has a protein stability index of 0.7158 ± 0.0022.
RSINTETPSKNE showed a protein stability index of 0.613 ± 0.056.
STAKTARRKREK was tested, and the protein stability index was 0.671 ± 0.0094.
In the case of THRAGLGANKGL, the protein stability index is reported as 0.696 ± 0.029.
LARLFQLLERPW was tested, and the protein stability index was 0.688 ± 0.063.
Work on DNKGKDEESERR yielded a protein stability index of 0.709 ± 0.038.
Sequence CAVSFPLCLLPP has a protein stability index of 0.6439 ± 0.0036.
SPRSATAPPPLP was tested, and the protein stability index was 0.71 ± 0.028.
Sequence SFLGYAVFPYKG has a protein stability index of 0.6808 ± 0.0041.
With TPLPPLPPHPPS the protein stability index was 0.727 ± 0.0087.
RTKETTTRQKKK showed a protein stability index of 0.708 ± 0.052.
With APPPPPPSPRVP the protein stability index was 0.71 ± 0.047.
In the case of GCRGVVVDGCGW, the protein stability index is reported as 0.593 ± 0.0073.
Sequence GVVGTVEGGATG has a protein stability index of 0.658 ± 0.037.
With VSVSDSKMARLG the protein stability index was 0.676 ± 0.055.
Sequence HPPPTHAQGRLV has a protein stability index of 0.671 ± 0.021.
With AVYIEFLYPRRL the protein stability index was 0.644 ± 0.039.
Sequence RSPHGLRSRIQR has a protein stability index of 0.72 ± 0.037.
GGAGHGAGAVWG was tested, and the protein stability index was 0.71 ± 0.037.
In the case of VCSLTFFGLCRP, the protein stability index is reported as 0.69 ± 0.025.
Work on AEFMRGVFKVSC yielded a protein stability index of 0.6816 ± 0.0036.
TLTTVLSPHSHR was tested, and the protein stability index was 0.716 ± 0.0073.
For SVLVTRILKFFL, the protein stability index was 0.558 ± 0.068.
